Data from patent publication US20040005324A1 (INTRACEL RESOURCES, published 2004).

Columns and labels:
BSA = BSA (UniProt P02769 25-607); experiment: ELISA with purified Fab
[1] = molecular target: RSV F glycoprotein of subgroup B isolate WV/17154/′85 (respiratory syncytial virus, subgroup B); experiment: cell-based or functional assay
[2] = molecular target: RSV F glycoprotein of subgroup B isolate WV/4843/′80 (respiratory syncytial virus, subgroup B); experiment: cell-based or functional assay
[3] = molecular target: RSV F glycoprotein of subgroup B isolate WV/2B/′87 (respiratory syncytial virus, subgroup B); experiment: cell-based or functional assay
[4] = molecular target: RSV F glycoprotein of subgroup A isolate SL/10849/′84 (respiratory syncytial virus, subgroup A); experiment: cell-based or functional assay
[5] = molecular target: RSV F glycoprotein of subgroup A isolate Wash/Bern/′65 (respiratory syncytial virus, subgroup A); experiment: cell-based or functional assay
[6] = molecular target: RSV F glycoprotein of subgroup B isolate WV/474R/′90 (respiratory syncytial virus, subgroup B); experiment: cell-based or functional assay
[7] = molecular target: RSV F glycoprotein of subgroup A isolate Bir/1734/′89 (respiratory syncytial virus, subgroup A); experiment: cell-based or functional assay
[8] = molecular target: RSV F glycoprotein of subgroup A isolate Wash/11657/′60 (respiratory syncytial virus, subgroup A); experiment: cell-based or functional assay
[9] = molecular target: RSV F glycoprotein of subgroup A isolate New/RSS-2/′76 (respiratory syncytial virus, subgroup A, UniProt P11209 26-574); experiment: cell-based or functional assay
[10] = molecular target: RSV F glycoprotein of subgroup B isolate WV/20323/′87 (respiratory syncytial virus, subgroup B); experiment: cell-based or functional assay
[11] = molecular target: RSV F glycoprotein of subgroup A isolate SL/10865/′84 (respiratory syncytial virus, subgroup A); experiment: cell-based or functional assay
[12] = molecular target: RSV F glycoprotein of subgroup A isolate SW/669/′59 (respiratory syncytial virus, subgroup A); experiment: cell-based or functional assay
[13] = molecular target: RSV F glycoprotein of subgroup B isolate WV/401R/′90 (respiratory syncytial virus, subgroup B); experiment: cell-based or functional assay
[14] = molecular target: RSV F glycoprotein of subgroup B isolate Wash/18537/′62 (respiratory syncytial virus, subgroup B, UniProt P13843 26-574); experiment: cell-based or functional assay
[15] = molecular target: RSV F glycoprotein of subgroup A isolate OK/9970/′85 (respiratory syncytial virus, subgroup A); experiment: cell-based or functional assay
[16] = molecular target: RSV F glycoprotein of subgroup A isolate SL/863/′84 (respiratory syncytial virus, subgroup A); experiment: cell-based or functional assay
[17] = molecular target: RSV F glycoprotein of subgroup B isolate WV/285R/′90 (respiratory syncytial virus, subgroup B); experiment: cell-based or functional assay
[18] = molecular target: RSV F glycoprotein of subgroup B isolate WV/1293/′75 (respiratory syncytial virus, subgroup B); experiment: cell-based or functional assay
[19] = molecular target: RSV F glycoprotein of subgroup A isolate Bir/6190/′89 (respiratory syncytial virus, subgroup A); experiment: cell-based or functional assay
[20] = molecular target: RSV F glycoprotein of subgroup B isolate WV/14617/′85 (respiratory syncytial virus, subgroup B); experiment: cell-based or functional assay
[21] = molecular target: RSV F glycoprotein of MARM v324 (strain A2 escape mutant, arginine to serine at residue 429 of the F1 subunit) (respiratory syncytial virus strain A2, UniProt P03420 26-574, limits assumed); experiment: cell-based or functional assay
[22] = molecular target: RSV F glycoprotein of MARM vN151 (strain A2 escape mutant, substitution at aa 272) (respiratory syncytial virus strain A2, UniProt P03420 26-574); experiment: cell-based or functional assay
[23] = molecular target: RSV F glycoprotein of MARM v1200 (strain A2 escape mutant, substitution at aa 272) (respiratory syncytial virus strain A2, UniProt P03420 26-574); experiment: cell-based or functional assay
[24] = molecular target: RSV F glycoprotein of wild type RSV strain A2 (respiratory syncytial virus strain A2, UniProt P03420 26-574); experiment: cell-based or functional assay
[25] = molecular target: RSV F glycoprotein of MARM v1214 (strain A2 escape mutant, substitution at aa 276) (respiratory syncytial virus strain A2, UniProt P03420 26-574); experiment: cell-based or functional assay
[26] = molecular target: RSV F glycoprotein of MARM v1237 (strain A2 escape mutant, substitution at aa 276) (respiratory syncytial virus strain A2, UniProt P03420 26-574); experiment: cell-based or functional assay
[27] = molecular target: RSV F glycoprotein of MARM v1153 (strain A2 escape mutant, substitution at aa 262) (respiratory syncytial virus strain A2, UniProt P03420 26-574); experiment: cell-based or functional assay
[28] = molecular target: RSV F glycoprotein of MARM v1129 (strain A2 escape mutant, substitution at aa 275) (respiratory syncytial virus strain A2, UniProt P03420 26-574); experiment: cell-based or functional assay

Chain of BSA (P02769 25-607 limits assumed): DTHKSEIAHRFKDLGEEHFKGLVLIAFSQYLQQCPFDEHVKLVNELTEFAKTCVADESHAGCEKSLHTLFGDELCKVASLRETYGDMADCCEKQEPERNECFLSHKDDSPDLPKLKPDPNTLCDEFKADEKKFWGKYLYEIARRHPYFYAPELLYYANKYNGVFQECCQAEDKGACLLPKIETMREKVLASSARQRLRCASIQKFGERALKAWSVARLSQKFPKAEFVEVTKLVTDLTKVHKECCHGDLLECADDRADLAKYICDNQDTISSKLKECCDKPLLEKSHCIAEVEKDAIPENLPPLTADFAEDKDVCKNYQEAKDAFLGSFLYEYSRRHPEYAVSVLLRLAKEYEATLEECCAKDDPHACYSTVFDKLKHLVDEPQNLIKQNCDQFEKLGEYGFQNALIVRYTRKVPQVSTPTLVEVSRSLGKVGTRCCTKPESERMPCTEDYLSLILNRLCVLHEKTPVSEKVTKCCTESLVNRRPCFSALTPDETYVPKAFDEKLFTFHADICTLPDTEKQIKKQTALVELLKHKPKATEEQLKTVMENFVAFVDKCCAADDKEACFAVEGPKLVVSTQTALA

B1: human monoclonal Fab RSVF2-5 (Fab, V domains shown)
VH: LEESGGDLVQPGRSLRLSCSTSGFSFGDYPVNWFRQAPGKGLEWLGIVRSRLYGGTLQYAASVEGRFTISRDDSKSIAYLHMNSLKSEDTAVYYCGVPVANIDYWGQGTLVTVSS
VL: LTQPHSVSESLGKTVTISCTRAGGRIASNYVQWYQQRPGSSPTTVIYEDNQRPFGVPDRFSGSIDTSSNSASLTISGLKTEDEADYYCQSYDSENPWVFGGGTKLTVLG
notes: CH1 and CL are therefore probably not in these entries; also called RSV Fab F2-5
BSA
  binding result: no binding
[1]
  Specific neutralization activity (µg/ml): purified Fab for 60% plaque reduction, Vero cells: 2.1 µg/mL
[2]
  Specific neutralization activity (µg/ml): purified Fab for 60% plaque reduction, Vero cells: 0.5 µg/mL
[3]
  Specific neutralization activity (µg/ml): purified Fab for 60% plaque reduction, Vero cells: 0.3 µg/mL
[4]
  Specific neutralization activity (µg/ml): purified Fab for 60% plaque reduction, Vero cells: 0.9 µg/mL
[5]
  Specific neutralization activity (µg/ml): purified Fab for 60% plaque reduction, Vero cells: 0.6 µg/mL
[6]
  Specific neutralization activity (µg/ml): purified Fab for 60% plaque reduction, Vero cells: 0.9 µg/mL
[7]
  Specific neutralization activity (µg/ml): purified Fab for 60% plaque reduction, Vero cells: 1.1 µg/mL
[8]
  Specific neutralization activity (µg/ml): purified Fab for 60% plaque reduction, Vero cells: 1.6 µg/mL
[9]
  Specific neutralization activity (µg/ml): purified Fab for 60% plaque reduction, Vero cells: 1.9 µg/mL
[10]
  Specific neutralization activity (µg/ml): purified Fab for 60% plaque reduction, Vero cells: 0.8 µg/mL
[11]
  Specific neutralization activity (µg/ml): purified Fab for 60% plaque reduction, Vero cells: 0.4 µg/mL
[12]
  Specific neutralization activity (µg/ml): purified Fab for 60% plaque reduction, Vero cells: 3 µg/mL
[13]
  Specific neutralization activity (µg/ml): purified Fab for 60% plaque reduction, Vero cells: 0.7 µg/mL
[14]
  Specific neutralization activity (µg/ml): purified Fab for 60% plaque reduction, Vero cells: 0.5 µg/mL
[15]
  Specific neutralization activity (µg/ml): purified Fab for 60% plaque reduction, Vero cells: 1.4 µg/mL
[16]
  Specific neutralization activity (µg/ml): purified Fab for 60% plaque reduction, Vero cells: 0.2 µg/mL
[17]
  Specific neutralization activity (µg/ml): purified Fab for 60% plaque reduction, Vero cells: 0.6 µg/mL
[18]
  Specific neutralization activity (µg/ml): purified Fab for 60% plaque reduction, Vero cells: 1 µg/mL
[19]
  Specific neutralization activity (µg/ml): purified Fab for 60% plaque reduction, Vero cells: 2.4 µg/mL
[20]
  Specific neutralization activity (µg/ml): purified Fab for 60% plaque reduction, Vero cells: 2.6 µg/mL
[21]
  Dose for 60% plaque reduction: > 18 µg/mL
[22]
  Dose for 60% plaque reduction: 0.4 µg/mL
[23]
  Dose for 60% plaque reduction: 0.3 µg/mL
[24]
  Dose for 60% plaque reduction: 0.1 µg/mL
[25]
  Dose for 60% plaque reduction: 0.1 µg/mL
[26]
  Dose for 60% plaque reduction: < 0.3 µg/mL
[27]
  Dose for 60% plaque reduction: 0.9 µg/mL
[28]
  Dose for 60% plaque reduction: 0.5 µg/mL
